Experimental data taken from the supplement of paper PMC10724198.
± gives the standard deviation of the averaged measurements.

Tests used:
Saccharomyces cerevisiae [1] = assay: protein stability index of tFT-peptide fusion (C-terminal peptide) (PSI (0-1 scale)); higher = more stable (slower turnover); conditions: genetic background: wild type; temperature: 30 C
Saccharomyces cerevisiae [2] = assay: as above
Procedure: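 MPS profiling in S. cerevisiae of the tFT-X12 degron library: putative degron peptides plus stable controls, 12 aa, fused to the C-terminus of a sfGFP-mCherry timer. Cells are FACS-sorted into 8 mCherry/sfGFP bins and deep-sequenced. PSI runs from 0 (unstable) to 1 (stable). Backgrounds are wild type, das1Δ and doa10Δ at 30 °C, and wild type, das1Δ, cdc34-1 and cdc53-1 at 37 °C; 2-3 technical replicates each.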

[3] = genetic background: cdc34-1, temperature: 37 C
[4] = genetic background: cdc53-1, temperature: 37 C
[5] = genetic background: das1 deletion, temperature: 30 C
[6] = genetic background: das1 deletion, temperature: 37 C
[7] = genetic background: doa10 deletion, temperature: 30 C
[8] = genetic background: wild type, temperature: 30 C
[9] = genetic background: wild type, temperature: 37 C
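Also: PSI is a weighted mean of sequencing reads over stability bins, variants kept only with over 10 reads, mCherry proximal and sfGFP distal, peptide attached via GGGS linker.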

| Sequence | protein stability index (Saccharomyces cerevisiae [1]) | protein stability index (Saccharomyces cerevisiae [2]; [3]) | protein stability index (Saccharomyces cerevisiae [2]; [4]) | protein stability index (Saccharomyces cerevisiae [2]; [5]) | protein stability index (Saccharomyces cerevisiae [2]; [6]) | protein stability index (Saccharomyces cerevisiae [2]; [7]) | protein stability index (Saccharomyces cerevisiae [2]; [8]) | protein stability index (Saccharomyces cerevisiae [2]; [9]) |
| --- | --- | --- | --- | --- | --- | --- | --- | --- |
| VFFLLSVYMVMM | 0.307 ± 0.065 | 0.145 ± 0.018 | 0.29 ± 0.075 | 0.195 ± 0.055 | 0.3338 ± 0.0028 | 0.182 ± 0.03 | 0.184 ± 0.015 | 0.32 ± 0.02 |
| SFQLVFLCVLIW | 0.218 ± 0.029 | 0.136 ± 0.0088 | 0.129 ± 0.008 | 0.155 ± 0.024 | 0.237 ± 0.0049 | 0.203 ± 0.011 | 0.154 ± 0.0091 | 0.184 ± 0.011 |
| LLMFWLSIWFWG | 0.32 ± 0.035 | 0.22 ± 0.0092 | 0.292 ± 0.0066 | 0.245 ± 0.047 | 0.374 ± 0.008 | 0.268 ± 0.023 | 0.233 ± 0.037 | 0.3551 ± 0.0028 |
| FVRSVFFCVSVG | 0.469 ± 0.057 | 0.498 ± 0.037 | 0.531 ± 0.017 | 0.396 ± 0.029 | 0.548 ± 0.019 | 0.34 ± 0.012 | 0.373 ± 0.027 | 0.5 ± 0.018 |
| WCFGSLLIRFSL | 0.458 ± 0.024 | 0.416 ± 0.057 | 0.446 ± 0.016 | 0.453 ± 0.04 | 0.5548 ± 0.0037 | 0.5049 ± 0.00066 | 0.411 ± 0.0096 | 0.516 ± 0.013 |
| WFSMSRLWVFYS | 0.217 ± 0.082 | 0.415 ± 0.043 | 0.637 ± 0.018 | 0.619 ± 0.028 | 0.729 ± 0.045 | 0.1047 ± 0.00079 | 0.0847 ± 0.027 | 0.106 ± 0.024 |
| SCLSYRTRLLAF | 0.49 ± 0.0059 | 0.52 ± 0.045 | 0.617 ± 0.011 | 0.477 ± 0.019 | 0.587 ± 0.0083 | 0.406 ± 0.0086 | 0.41 ± 0.014 | 0.504 ± 0.011 |
| CSYPTLSMYSTT | 0.74 ± 0.072 | 0.673 ± 0.068 | 0.766 ± 0.038 | 0.655 ± 0.013 | 0.718 ± 0.017 | 0.665 ± 0.007 | 0.645 ± 0.013 | 0.71 ± 0.011 |
| FTNLDYTKEKNN | 0.29 ± 0.017 | 0.423 ± 0.15 | 0.6798 ± 0.0014 | 0.623 ± 0.052 | 0.708 ± 0.042 | 0.134 ± 0.012 | 0.146 ± 0.025 | 0.178 ± 0.0045 |
| FFVISVVLCLLV | 0.43 ± 0.0088 | 0.377 ± 0.015 | 0.48 ± 0.016 | 0.341 ± 0.022 | 0.447 ± 0.022 | 0.325 ± 0.0033 | 0.344 ± 0.019 | 0.434 ± 0.015 |
